In the Immune Epitope Database (IEDB):

Columns and labels:
HLA-B*38:01 = assay: IEDB peptide-MHC binding, purified MHC/competitive/radioactivity; filed as Kd, often an IC50 or EC50 that approximates it; ≥ and ≤ were set here for values at or beyond the usual limits of such assays; settings: source organism: Homo sapiens
HLA-B*15:02 = assay: IEDB peptide-MHC binding, purified MHC/competitive/fluorescence; filed as Kd, often an IC50 or EC50 that approximates it; ≥ and ≤ were set here for values at or beyond the usual limits of such assays; settings: source organism: Giardia lamblia ATCC 50803
HLA-A*26:01 = assay: as above; settings: source organism: Pleistophora sp. LS
HLA-B*15:09 = assay: as above; settings: source organism: Pleistophora sp. LS
HLA-B*15:17 = assay: as above; settings: source organism: Pleistophora sp. LS
HLA-B*27:05 = assay: as above; settings: source organism: Pleistophora sp. LS
HLA-B*08:02 = assay: as above; settings: source organism: Pleistophora sp. LS
HLA-B*40:01 = assay: as above; settings: source organism: Pleistophora sp. LS
HLA-B*08:03 = assay: as above; settings: source organism: Pleistophora sp. LS
HLA-A*02:01 = assay: as above; settings: source organism: Pleistophora sp. LS
HLA-B*48:01 = assay: as above; settings: source organism: Pleistophora sp. LS
HLA-B*18:01 = assay: as above; settings: source organism: Pleistophora sp. LS
HLA-B*58:01 = assay: as above; settings: source organism: Pleistophora sp. LS
HLA-A*31:01 = assay: as above; settings: source organism: Pleistophora sp. LS
HLA-A*68:02 = assay: as above; settings: source organism: Pleistophora sp. LS
HLA-A*30:01 = assay: as above; settings: source organism: Pleistophora sp. LS
HLA-A*02:03 = assay: as above; settings: source organism: Pleistophora sp. LS
HLA-B*07:02 = assay: as above; settings: source organism: Pleistophora sp. LS
HLA-B*57:01 = assay: as above; settings: source organism: Pleistophora sp. LS
HLA-B*39:01 = assay: as above; settings: source organism: Pleistophora sp. LS
HLA-B*35:01 = assay: as above; settings: source organism: Pleistophora sp. LS
HLA-A*11:01 = assay: as above; settings: source organism: Pleistophora sp. LS
HLA-A*01:01 = assay: as above; settings: source organism: Pleistophora sp. LS

SHETVTIEL gave a Kd (HLA-B*38:01) of 2.48 µM.
For TLAHTHAAY, the Kd (HLA-B*15:02) was 0.0671 µM.
VELQIGWTV was tested, and the Kd (HLA-A*26:01) was no less than 20 µM, the Kd (HLA-B*15:09) was no less than 20 µM and the Kd (HLA-B*15:17) was no less than 20 µM. The Kd (HLA-B*27:05) was no less than 20 µM, the Kd (HLA-B*08:02) was no less than 20 µM and the Kd (HLA-B*40:01) was 0.04 µM. The Kd (HLA-B*08:03) was no less than 20 µM, the Kd (HLA-A*02:01) was 0.239 µM and the Kd (HLA-B*48:01) was no less than 20 µM. It also gave a Kd (HLA-B*18:01) of no more than 0.001 µM, a Kd (HLA-B*58:01) of no less than 20 µM and a Kd (HLA-A*31:01) of no less than 20 µM. For the same sequence, the Kd (HLA-A*68:02) was no less than 20 µM, the Kd (HLA-A*30:01) was no less than 20 µM and the Kd (HLA-A*02:03) was no less than 20 µM. It also gave a Kd (HLA-B*07:02) of no less than 20 µM, a Kd (HLA-B*57:01) of no less than 20 µM and a Kd (HLA-B*39:01) of 0.949 µM. The Kd (HLA-B*35:01) was no less than 20 µM, the Kd (HLA-A*11:01) was no less than 20 µM and the Kd (HLA-A*01:01) was no less than 20 µM.
